Laboratory results from the DeepSol protein solubility set.

Assay: soluble on expression in E. coli; label from the status in PepcDB or PDB records

MGSDKIHHHHHHMMIQYPKLTISDRLNQHRERLPLADLQETFKESWTVNEKWQVTFAITDSLAYEQAIKLLDVQNIVHYDGQSYVIIQCTKTVSGGVSVYEVTASHLFYRLANNARQNNVKTGTLTYGLSEAVNFMLDNNDQGLTAKFIGDFPRIKIENLGNSSFNKFLQDYTSKFDASYVIDNQQIIFYSATYLKHQPVIDTLFYQHDVENVKLSLDTTSLANEVRCLGKPIDKSSGNNDSQTKYQVDFTYRDDASIQKWGLQRGDPLSDERFTDQGSMTEYARQTVQAQPIATLTTTAWNVTIKQCETVKLVMPNLDWQTTVALNGYERNPFNQFSLPTITFDNASLAVNDINVAMFKHITNAHNHVGKTMVQLMAALGDIQNGDLITDEDTIDKLNELGGIS
soluble on expression in E. coli: not soluble

MGLTISSLFSRLFGKKQMRILMVGLDAAGKTTILYKLKLGEIVTTIPTIGFNVETVEYKNICFTVWDVGGQDKIRPLWRHYFQNTQGLIFVVDSNDRERIQEGAAVLEKMLLEDELQDAVLLLFANKQDLPNAMAISEMTDKLGLQSLRNRTWYVQATCATQGTGLYEGLDWLSHELSNVK
soluble on expression in E. coli: soluble

MDPNQPVKFTEFMPDSGGIRTKFIVKGSNFGEDKSQVKVYFKDEVGNEREALVLGVKPDVIYAQVPKQAGGESHVRVEIAGKEAELSNAEKTFKYIVTSSVSTVVGKAKEGGNKDGTLGETTFNTPRYVAVDNDDNVFIFDSDGRTRLSSIEQNKTITLLDGMVIDQPLFIDKEKKQLFGPCDNANFGCFLFDANVSWVADKMGQLLANGGWMHSVVLDPVDSTFVIYRQNTGQLWTQPFDKNRRTLNPNKAKRIGTLYNTGSNGLCAYNPVDKYVYCVLHSKSAVYRFKLTRDADGWPALDGDIDEYIPGAGAGFRDGDVQEAQFKEPRGIAIDKEGNLYIADVGNNRIRKVDTKLNVVTTIAGSGAAGYKDGDPLEAQFNQPWGVYLDKNEFLYIADQNNHCIRKLAIELEHHHHHH
soluble on expression in E. coli: not soluble

MAHHHHHHMIVLLRKNNLKNTLRLFPLGCNNKLVFMRGYINEQTKGPIEKKTTDNNEKMLLNKTLEDVKVSKENSCNALFDECLEELYRMKKKVDKESVEYDNSPIIEELNREELKITRNIFERINKKKKHVSNLSYKDIYIDPYWNPFKDVDNLKQEILYEFNEYSKMASIVELKKQRRAIKKSLKEQYKLYNPYSEEYNKHFNLNMDNDVKEQQMECHDKDEKYWNPSFNKRKILNIKSPFIWRYTHLLHHFIGENGLILPRKINMTTRKQQIQIFKSICIARRMALYPYDKKPEKDDLIPLMDPLQFLLDELIHRYIQLNDLRAQAIIKVMINRYPSLNYYKYFFYESKKEKDKNEKTAQNEQEENVSEKKEPFSQMLQKYKKNYYENFYKY
soluble on expression in E. coli: not soluble

FLHAIIPVHRPLRVGVLTQPVHAEISVADPMLAAVDAAASALSQAGHQLVEVQRPYGDAPFAAFSDILALRSAKIHGQASPLVSWLRDRGGRIGGRRKAKAIAEFLSVRAQLLAAWDVD
soluble on expression in E. coli: not soluble

MQVSPHDTSQPKQHAQSLSSASQSEAGKYTDGRETSARWLDDDSIAQRDLWNFIGDELKMGIPDNARIREQKTRYLKNKSYLHDVTLRAEPYMYWIVEQIKQRKMPMELVLLPIVESAFDPSATSSANAAGLWQIIPGTGRNYGLKQNQWYDGRRDVIASTTAALDMMQRLNTMFDGDWLLTVAAYNSGEGRVMQAMKANKAKGKPTNFWALALPRETSIYVPKMLALSDILKNSKKYGVNLPQPNESRALAKVELGQQIELTQAAEMAGLSLNKLKSYNSGYKRNVTAPNGPHYIMVPKAHVEQLKDSLADGDIAAIQPTRLEQTPASQQYKVRSGDTLSAIATRLNVSTKDLQSWNNLRSVGALKVGQTLQVAKASGTNGSITYQVRKGDSLASIAKRHGVNIADVMRWNTVINKNANIQPGDRLTLYVSSNIKPDSLEHHHHHH
soluble on expression in E. coli: soluble

MSLRYKVGEVAARLGLTLRTLKYYEELGLVTPERTDSRYRMYSEADVQRLERIRRMRALGLSLGTIQAISTHPQESDPDGRQVLTQEALHTLESDLSSQLTVLSTRITAAEKELKDARALRRDVQRDLDYVQRRLAGAQVGELLREKDPAEGHHHHHH
soluble on expression in E. coli: not soluble

MPADTRPAAIVLMGPTASGKSQLAIDIAKRWGGEVISVDSVLVYRGLDIGTAKPNAAMRASVPHHLIDICEPWETYSAADFAHDARAAIDMIVRRGALPILTGGTGLYFRALLAGLSDMPPAHPEIRAMIAAEAKRDSWAALHTRLAEVDAITAARIHATDPQRIQRALEVYLVSGQSMSDWQNQPPKQRLPLRVLKLVLAPTHRKVLHFRIAQRFKAMLDNGLLAEVNALRTHPSIHAMARPLDLPAMRAVGYRQCWEHLDGMYTAEMLYQRSVAATRQLAKRQLTWLRGELDALWFDPEHDQSRIEKVMEAFLNRLEHHHHHH
soluble on expression in E. coli: not soluble

SNAEWESITPPVVDAPAVVEFFSFYCPPCYAFSQTMGVDQAIRHVLPQGSRMVKYHVSLLGPLGHELTRAWALAMVMKETDVIEKAFFTAGMVEKRLHSPDDVRRVFMSATGISRGEYDRSIKSPAVNDMVALQERLFKEYGVRGTPSVYVRGRYHINNAAFGAFSVENFRSRYAAVVRKLLAGNPDAD
soluble on expression in E. coli: soluble

GPHMPEQYRYTLPVKAGEQRLLGELTGAACATLVAEIAERHAGPVVLIAPDMQNALRLHDEISQFTDQMVMNLADWETLPYDSFSPHQDIISSRLSTLYQLPTMQRGVLIVPVNTLMQRVCPHSFLHGHALVMKKGQRLSRDALRTQLDSAGYRHVDQVMEHGEYATRGALLDLFPMGSELPYRLDFFDDEIDSLRVFDVDSQRTLEEVEAINLLPAHEFPTDKAAIELFRSQWRDTFEVKRDPEHIYQQVSKGTLPAGIEYWQPLFFSEPLPPLFSYFPANTLLVNTGDLETSAERFQADTLARFENRGVDPMRPLLPPQSLWLRVDELFSELKNWPRVQLKTEHLPTKAANANLGFQKLPDLAVQAQQKAPLDALRKFLETFDGPVVFSVESEGRREALGELLARIKIAPQRIMRLDEASDRGRYLMIGAAEHGFVDTVRNLALICESDLLGERVARRRQDSRRTINPDTLIRNLAELHIGQPVVHLEHGVGRYAGMTTLEAGGITGEYLMLTYANDAKLYVPVSSLHLISRYAGGAEENAPLHKLGGDAWSRARQKAAEKVRDVAAELLDIYAQRAAKEGFAFKHDREQYQLFCDSFPFETTPDQAQAINAVLSDMCQPLAMDRLVCGDVGFGKTEVAMRAAFLAVDNHKQVAVLVPTTLLAQQHYDNFRDRFANWPVRIEMISRFRSAKEQTQILAEVAEGKIDILIGTHKLLQSDVKFKDLGLLIVDEEHRFGVRHKERIKAMRANVDILTLTATPIPRTLNMAMSGMRDLSIIATPPARRLAVKTFVREYDSMVVREAILREILRGGQVYYLYNDVENIQKAAERLAELVPEARIAIGHGQMRERELERVMNDFHHQRFNVLVCTTIIETGIDIPTANTIIIERADHFGLAQLHQLRGRVGRSHHQAYAWLLTPHPKAMTTDAQKRLEAIASLEDLGAGFALATHDLEIRGAGELLGEEQSGSMETIGFSLYMELLENAVDALKAGREPSLEDLTSQQTEVELRMPSLLPDDFIPDVNTRLSFYKRIASAKTENELEEIKVELIDRFGLLPDPARTLLDIARLRQQAQKLGIRKLEGNEKGGVIEFAEKNHVNPAWLIGLLQKQPQHYRLDGPTRLKFIQDLSERKTRIEWVRQFMRELEENAIA
soluble on expression in E. coli: soluble

MHHHHHHSSGRENLYFQGESTRRLILVGRTGAGKSATGNSILGQRRFFSRLGATSVTRACTTGSRRWDKCHVEVVDTPDIFSSQVSKTDPGCEERGHCYLLSAPGPHALLLVTQLGRFTAQDQQAVRQVRDMFGEDVLKWMVIVFTRKEDLAGGSLHDYVSNTENRALRELVAECGGRVCAFDNRATGREQEAQVEQLLGMVEGLVLEHKGAHYSNEVYELAQVLRWAGPEERLRRVAERVAARVQR
soluble on expression in E. coli: soluble

MRLLILGGTGDAAELSAKVATIPGIEAIASLAGRTREPSLPSGNVRVGGFGGAAGLADYLRQMQVDVLIDATHPFAAQISENAALAADEVEIPRLMLIRPPWVKVAGDRWIEVDTTSAAAAILKNQAKRVFLTVGRQELSAFAHLHDIWFLMRMIDPPAADALVPPGVILCDRGPFTLPQERDILIQHNIDTLVSKNSGGDATYAKIIAARELGVQVVMVNRPVVPACEQVTDADAAVAWLLEK
soluble on expression in E. coli: not soluble

MSLNEMEKRPEDTRVVVGMSGGVDSSVAALLLKEQGYDVIGIFMKNWDDTDENGFCTATEDYEDVIRVCNQIGIPYYAVNFEKQYYEKVFQYFLDEYKAGRTPNPDVLCNKEIKFKAFLEHALSLGADYLATGHYARVDRSGGKVRMLRGIDENKDQTYFLNQLTEDTLSKVMFPIGELQKSRVREIAKEAELATATKKDSTGICFIGERNFKTFLSQYLPAQPGDMMTMDGEVKGRHDGLMYYTIGQRHGLGIGGSGEPWFAVGKDLEKNILYVDQGFHNPLLYSDKITATNISWVRSDIMKGEEISCTAKFRYRQEDHKVTVRMTGEGEAEVIFDEQVRAVTPGQAVVFYDGEECLGGGTIDDVYKDGTKLWYVEGHHHHHH
soluble on expression in E. coli: soluble

MSHQIRSKKTLWELVGRNKDALRDFLKEHRGTILLRDIASEHKVVYKPIFKRYNGDPDLIEDNSNDVEHWYDYHLERYWNTPELKKEFYKKFGPVDLNQPIILAKPLRQHNRGDLVHLLPQFVVPVYN
soluble on expression in E. coli: soluble

MTSILNPVIRKEYSELKRPDLRGKFICASCGQHFQHNASLNRHRRLLHGNEHTCMMCDRKLNAKETIRDHMRNEHNLFQVFTCGCCNWSFSSKRQLSEHTKCIQGTGAPGDTIPIAKSCNAPGSLIQSTIQGTPPVVKTGRKRGGSLSSSSSVSTSISSRDVSGSPPPTEEEAERKVLFDNAVDTILQSKFFTYQQITEVDTWIKIIENANTLADTLQRINKTKKIKAEMPADKDVKRFKLEVE
soluble on expression in E. coli: not soluble

GGYSSEQQEDLEAIAPAVVQALQRKKAEEALRLSNIYNRSLIESSLDPLVTIGRDGKITDVNCATEQVTGYPRNDLIKTDFSDYFTEPENARAGYKQVFTDGEVRDYPLEIQHKDGHITPVLYNASVYRDEN
soluble on expression in E. coli: not soluble

VMNRMATALGGDYFDFISMPDGREVVFIGDVTGHDIQSSVVMSLVYGFLHHCALTVDDPLTMVSQLNRFLVRFADHGTELDHHFSSTLFLGIIDPASLRLEYVNAGHVPPLVLRRNSLHRLASTSPPVGFFAEAEVATGCFGLERGDRLLLYTDGILDASNGTETFGAERLDAFLTATGGSYTRFMDELAAALRDFGAGDPPDDDCSAIVIDI
soluble on expression in E. coli: not soluble

MAHHHHHHMAHVITRINAREILDSRGNPTVEVDLETNLGIFRAAVPSGASTGIYEALELRDNDKSRYLGKGVQKAIKNINEIIAPKLIGMNCTEQKKIDNLMVEELDGSKNEWGWSKSKLGANAILAISMAVCRAGAAANKVSLYKYLAQLAGKKSDQMVLPVPCLNVINGGSHAGNKLSFQEFMIVPVGAPSFKEALRYGAEVYHTLKSEIKKKYGIDATNVGDEGGFAPNILNANEALDLLVTAIKSAGYEGKVKIAMDVAASEFYNSENKTYDLDFKTPNNDKSLVKTGAQLVDLYIDLVKKYPIVSIEDPFDQDDWENYAKLTAAIGKDVQIVGDDLLVTNPTRITKALEKNACNALLLKVNQIGSITEAIEACLLSQKNNWGVMVSHRSGETEDVFIADLVVALRTGQIKTGAPCRSERNAKYNQLLRIEESLGNNAVFAGEKFRLQLN
soluble on expression in E. coli: not soluble

MSTQNYPATGRLAEPEYGTLLVKNVKIYGEGEPVNVLITDGVITDTHAGDVKADREVDGQGGVLLPGLVDIHVHLREPGREDTETIATGSAAAAKGGFTAVFTMANTMPVMDQPIIAESVWHKGQDIGLCDVHPVGSITKGLEGKEITEFGMMAHSQAKVRMFSDDGKCVDNPLIMRRAVEYARGTDVLLAQHCEDPRLTDGAVAHEGAMAAKLGLGGWPRVAEESIVARDAILARDYGGRMHICHASTQGTVELVKWAKEHEIPLTAEVTPHHLLLTDERLATYDGVNRVNPPLRENSDILALRDALLNGTIDCVATDHAPHGSEDKCCEFEHAKPGMLGLETSLAVVAAVFVETGLADWRFVAKVMSERPAEIVKLPGHGRPIAVGEPANLTIVDPGAKWTASGEKMASKATNTPYEGMEFNARVTTTILRGRLTCVDGEPTQARA
soluble on expression in E. coli: not soluble
